The target of one assay is T1, HeV-G.
T1 chain: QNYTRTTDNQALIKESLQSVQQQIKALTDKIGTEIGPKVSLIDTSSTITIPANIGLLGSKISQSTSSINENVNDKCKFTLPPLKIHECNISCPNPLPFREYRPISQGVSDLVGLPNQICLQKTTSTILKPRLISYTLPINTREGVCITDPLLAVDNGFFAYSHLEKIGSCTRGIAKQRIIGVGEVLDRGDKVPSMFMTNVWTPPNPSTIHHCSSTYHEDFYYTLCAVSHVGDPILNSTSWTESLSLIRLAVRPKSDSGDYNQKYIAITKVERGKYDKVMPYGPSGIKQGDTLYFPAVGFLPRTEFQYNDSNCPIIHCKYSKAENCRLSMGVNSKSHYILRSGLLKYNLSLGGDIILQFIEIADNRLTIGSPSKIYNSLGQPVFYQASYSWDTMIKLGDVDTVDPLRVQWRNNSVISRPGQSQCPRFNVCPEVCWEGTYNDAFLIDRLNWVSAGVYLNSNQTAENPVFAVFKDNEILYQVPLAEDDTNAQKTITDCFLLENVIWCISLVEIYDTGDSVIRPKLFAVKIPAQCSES

The next assay has as its target T2, NiVM-G.
T2 chain: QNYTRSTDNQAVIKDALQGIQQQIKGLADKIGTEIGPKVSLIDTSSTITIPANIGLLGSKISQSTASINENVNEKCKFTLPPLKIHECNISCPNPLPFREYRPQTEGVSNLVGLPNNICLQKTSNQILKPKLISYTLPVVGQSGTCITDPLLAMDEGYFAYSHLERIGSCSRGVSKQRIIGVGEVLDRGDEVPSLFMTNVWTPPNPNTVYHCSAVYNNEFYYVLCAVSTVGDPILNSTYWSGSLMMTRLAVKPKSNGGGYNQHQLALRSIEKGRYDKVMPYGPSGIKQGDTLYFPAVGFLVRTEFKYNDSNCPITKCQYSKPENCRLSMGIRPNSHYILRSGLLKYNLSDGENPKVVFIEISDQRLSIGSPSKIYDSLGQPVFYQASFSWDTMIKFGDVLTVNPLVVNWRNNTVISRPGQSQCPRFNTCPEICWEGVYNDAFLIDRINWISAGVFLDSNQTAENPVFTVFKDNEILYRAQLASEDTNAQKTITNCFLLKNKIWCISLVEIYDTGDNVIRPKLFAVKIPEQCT

B1: HENV-122 (antibody, V domains shown)
VH: EVQLLESGGGLVQPGGSLRLSCAASGFTFSTNAMSWVRQAPGKGLEWVSTVSGSGAHPNYGDSVKGRFTISRVNSKNTLFLQMSSLRAEDTAIYYCARVSTVTVGGHIPRGYYFDYWGQGTLVTVSS
VL: EILLTQSPGTLSLSPGERATLSCRASQSASSSYLAWYQQKPGQAPRLLIYGASTRATGIPDRFSGSGSGTEFTLTISRLESEDFAVYYCHHYGSSRTFGQGTKVEVK
B1: the EC50 (in general, the midpoint of the concentration-response curve) in the assay with HeV-G was determined as 0.387 nM; with NiVM-G it was 0.407 nM.

B2: HENV-58 (antibody, V domains shown)
VH: QVQLVQSGAEVKKPGSSVKVSCKASGGTFSNYVISWVRQAPGQGFEWMGRIIPMIGISNYAQKFQDRVTITADKDESTTTAYMELRGLRSEDTAMYYCASSTVTEVGAWGQGTLVTVSS
VL: AIQLTQSPSSLSASIGDRVTITCRASQGISSALAWFQQKPGKPPILLIYDASSLESGVPARFSGSGSGTDFTLTISSLQPEDFATYYCQQFYNHPLTFGPGTKVDIK
For the molecule B2, the half-maximal effective concentration (EC50) in the assay with HeV-G turned out to be 1.14 nM; in the assay with NiVM-G, 0.739 nM.

B3: HENV-141 (antibody, V domains shown)
VH: QVQLVQSGAEVKKPGSSVKVSCKASGGTFSSYTISWVRQAPGQGLEWMGRIIPISGITNYAQKFQGRVTITADKSTSTAYMELSSLRSEDTAVYYCAKDCYYGSGTYYGCRADYQWHHTMDVWGQGTTVTVSS
VL: DIQMTQSPSSLSASVGDRVTITCRASQGIRNDLGWFQQKPGKAPKRLIYAASSLQSGVPSRFSGSGSGTEFTLTISSLQPEDFATYFCLQHNTYPLTFGQGTKVEIK
With B3, the figures for the 50% effective concentration (EC50) with HeV-G and with NiVM-G were 0.326 nM and 0.266 nM, respectively.

B4: HENV-170 (antibody, V domains shown)
VH: EVQLLESGGGLVQPGGSLRLSCAASGFTFSSYTMSWVRQAPGKGLEWVSGISGSGGNTYYAGSVKGRFTISRDNSKNTLYLQMNSLRAEDTAVYYCAKDGYTGQQLMRRGPWWFDPWGQGTLVTVSS
VL: SYVLTQPPSVSVAPGQTARITCGGNNIGSKSVHWYQQKPGQAPVLVVYDDSDRPSGIPERFSGSKSGNTATLTISRVEAGDEADYYCQVWDSSSDHVVFGGGTKLTVL
As for B4, the results for the EC50 with HeV-G and in the assay with NiVM-G were 0.518 nM and 0.378 nM, respectively.

B5: HENV-150 (antibody, V domains shown)
VH: EVQLLESGGGLVQPGGSLRLSCAASGFTFSSSAMSWVRQTPGKGLEWVSTISGSGANTYYAASVKGRFPISRDNSKNTLFLQMNSLRAEDTAVYYCAKVSTVTFGGHVPRGSYFDYWGQGTQVTVSS
VL: SYVLTQPPSVSVAPGQTARIPCGGNNIGSKSVHWYQQKPGQAPVLVVYDENDRPSGIPERFSASKSGNTATLTISRVEAGDEADYYCQVWDSRSDHYVFGTGTKVTVL
With B5, the EC50 is 0.328 nM in the assay with HeV-G and 0.27 nM in the assay with NiVM-G.

B6: HENV-142 (antibody, V domains shown)
VH: QVRLQESGPRLVKPSQTLSLTCTVSGGSISSRDYYWSWIRQHPGKGLEWIGYIYYSGTTYYNPSLESRVTLSLDTSKNQFSLDLTSVTAADTAVYHCARVWLGGGVFDFWGQGTLVTVSA
VL: EIVMTQSPDTLSVSPGERATLSCRASHSVTTNLAWYQQRPGQAPRLLIFDASTRATGIPARFSGSGSGTEFTLTIGSLQSEDFAVYYCQQYNDGRTFGQGTKVEIK
For B6, the figures for the EC50 with HeV-G and with NiVM-G were 1.86 nM and 1.03 nM, respectively.

B7: HENV-117 (antibody, V domains shown)
VH: QVQLQQWGAGLLKPSETLSLTCDLSGGSFTNYYWTWIRHLPGKGLEWLGEINHSGRTNYSPSLKSRVTISVDTSKNQFSLRLSSVTAADTAVYYCARDIRKLAPKPHSYDLYYGMDVWGQGTTVTVSS
VL: EIVLTQSPGTLSLSPGERATLSCRASQSVGSNYLTWYQQKPGQPPRLLIYGASNRAAGIPDRFSGSGSGTDFTLTISRLEPEDFAVYYCQQYETSSRTFGQGTKVDIR
On to B7, for which the EC50 turned out to be 1.06 nM with HeV-G and 1.23 nM in the assay with NiVM-G.

B8: HENV-100 (antibody, V domains shown)
VH: QVQLVQSGAEVKKPGASVKVSCKASGYTFTSYYINWVRQAPGQGLEWVGTINPSGGSTTYAQKFQGRVTVTRDTSTSTVYMDLSGLRSGDTAVYYCARDRKGLAATPVYSDYYYGMDVWGQGTTVTVSS
VL: EIVLTQSPATLSLSPGERATLSCRASQSVSSFLAWYQQKPGQAPRLLISDASKRATGIPARFSGSGSGTDFSLTISSLEAEDFAVYYCQQSTNWRITFGQGTRLELK
Regarding B8, the EC50 with HeV-G turned out to be 0.469 nM; with NiVM-G it was 0.316 nM.

B9: HENV-242 (antibody, V domains shown)
VH: QVQLVQSGAEVKKPGSSVTVSCKTSGGTFSGYAVSWVRQAPGQGLEWMGRIVPQFNIPNYAQKFQDRVTITADESTGTSYMELSSLRSDDTAVFYCARENIQTIFGVVAMMGGGGYFDSWGQGTLVTVSS
VL: DIQMTQSPSSLSASVGDRVTITCQANQDINTYLNWYLQKPGKAPQLLVFDASNLVTGVPSRFSGGGSRTDFTLTIDSLQPEDIGTYYCQQYDHLPRRTFTFGPGTKVDLK
For B9, the EC50 with HeV-G turned out to be 6.6 nM; with NiVM-G, 0.716 nM.

B10: HENV-98 (antibody, V domains shown)
VH: AVQLVESGGGLVQPGGSLRLSCEASGFTFSGYWMSWVRQAPGKGLEWVANIKGDGSEKYYVDSVKGRFTIFRDNAKTSLYLQVNSLRAEDTAVYYCARERHFLAARPGYYIYSGLDVWGPGTTVTVSS
VL: DIQMTQSPSSLSASVGDRVTITCRASQSIDNYLNWYQQKPGKVPKLLIYAASNLQSGVPSKFSGGGSGTDFTLTISSLQPDDFATYYCQQSFGTPRTFGQGTRVEIK
On to B10, for which the values for the EC50 in the assay with HeV-G and with NiVM-G were 0.434 nM and 0.396 nM, respectively.

B11: HENV-184 (antibody, V domains shown)
VH: QVQLVQSGTEVKNPGSSVKVSCKASGGTFSGFGISWVRQAPGQGLEWMGGVLPIFGSPNYAQKFQGRVTITADESTGTAYMDLSSLRSDDTAMYYCARDQSGGFFDYWGQGTLVIVSS
VL: EIVLTQSPATLSLSPGERATLSCRASQSVSSNLAWYQQKPGQAPRLLIYDASDRATGVPARFSGSGSGTDFTLTISSLEPEDFALYYCQQRYNWRVTFGQGTRLEIK
In the case of B11, the EC50 came to 1.19 nM in the assay with HeV-G and 0.622 nM with NiVM-G.

B12: HENV-222 (antibody, V domains shown)
VH: QVQLQESGPGLVKPSETLSLTCTVSGGSIDSYYWSWIRQPAGKGLEWIGRIYPSGTTNYNPSLKSRVTMSVDTSKNQFSLKVTSVTAADTAVYYCARMQTGFGSSLFFVPYFDNWGQGTLVTVSS
VL: EIVLTQSPATLSLSPGERATLSCRASQSVSSYLAWYQQKPGQAPRLLIYDASNRATGIPARFSGSGSGTDFTLTISSLEPEDFAVYYCQQRGNWPLTFGGGTKVEIK
In the case of B12, the EC50 stood at 5.66 nM with HeV-G and 0.586 nM with NiVM-G.

B13: HENV-103 (antibody, V domains shown)
VH: QVQLQGSGPGLVKPSQTLSLTCSVSGGSVSRSGYYWGWIRQHPGKGLECIGYIYYSGITYYNPSLSGRLTISVDTSKNQFSLELSSVTAADTAVYYCARVWLGGGVFDFWGQGSLVTVSS
VL: EIVMTQSPATLSVSPGEGATLSCRASQSVSSNLAWYQQKPGQAPRLLIYDASTRATGIPARFSGSGSGTEFTLTISSLQSEDFAVYYCQQYNDWRTFGRGTKVEMR
As to B13, the values for the EC50 in the assay with HeV-G and with NiVM-G were 0.806 nM and 0.611 nM, respectively.

B14: HENV-226 (antibody, V domains shown)
VH: EERLVQSGGGLAQPGQSLRLSCAGFGFTFTRYEMNWVRQAPGKGLEWIAHISTRGDTISYADSVKGRATISRDDTNNSLDLQMDSLRAEDTAIYFCARDRGSLSTRPPDSYHYYYHGMDVWGQGTTVIVSS
VL: EIVLTQSPATLSLSPGERATLSCRASQSIDTYLAWYQQKPGQAPRLLIYDASNRATGIPARFSGSGSGTDFSLTISSLEPDDFAVYYCQQRSNRPPRYTFGLGTRLEIK
In the assay with NiVM-G, B14 gave an EC50 of 0.259 nM.

B15: HENV-99 (antibody, V domains shown)
VH: QVLLVQSGAEVRKPGASVKVSCRASGYTFTDYYMHWVRQAPGQGLEWMGWINPNSGATKYAQKFQGRVTLTRDTSINTAYMELSGLRSVDTAVFYCASVPPSGFFYWGSDYWGQGTLVTVSS
VL: DVVLTQSPLSLPVTLGQPASISCRSSQSLVYSDGTTYLNWFQQRPGQSPRRLIYKVSYRDSGVPDRFSGSGSGTDFTLEISRVEAEDVGIYYCMHGTHWETWTFGQGTKVEIK
With B15, the EC50 is 0.42 nM with HeV-G and 0.294 nM with NiVM-G.

(Values after patent US12559545 (VANDERBILT UNIVERSITY, dated 2026).)
